Assay results from patent US5811533, “High-affinity oligonucleotide ligands to vascular endothelial growth factor (VEGF)” (NeXstar Pharmaceuticals, Inc.).

B1: ssDNA b56 (ssDNA)
DNA: CTACCTACGATCTGACTAGCGCAGGGCCACGTCTATTTAGACTAGAGTGCAGTGGTTCGCTTACTCTCATGTAGTTCCT
B2: ssDNA b65 (ssDNA)
DNA: CTACCTACGATCTGACTAGCCGAGGTCCCCCACTGGATAGAGTTGTTGAAACAACGGTGCGCTTAGCTTACTCTCATGTAGTTCCT
B3: ssDNA 23 (ssDNA)
DNA: ATCCGCCTGATTAGCGATACTGGGCATCTAACCCAGACCTACCGGAACGTTATCGCTTGTGACTTGAGCAAAATCACCTGCAGGGG
B4: ssDNA 15 (ssDNA)
DNA: ATCCGCCTGATTAGCGATACTACCGCTGTGTAGTTCCTTTAGGACTAGAGGGCCGCCTACACTTGAGCAAAATCACCTGCAGGGG
B5: ssDNA b95 (ssDNA)
DNA: CTACCTACGATCTGACTAGCCCACTGCATAGAGAACTGGATCGACGGTCCAAAGTTCGGTGCTTAGCTTACTCTCATGTAGTTCCT
B6: ssDNA 10 (ssDNA)
DNA: ATCCGCCTGATTAGCGATACTGTACCATCCACGGTTTACGTGGACAAGAGGGCCCTGGTACACTTGAGCAAAATCACCTGCAGGGG
B7: ssDNA 6 (ssDNA)
DNA: ATCCGCCTGATTAGCGATACTATACACCCGGCGGGCCTACCGGATCGTTGATTTCTCTCCACTTGAGCAAAATCACCTGCAGGGG
B8: ssDNA b66 (ssDNA)
DNA: CTACCTACGATCTGACTAGCAACACTTCCCCACTGGATAGAGGCCTTTCGCAGAGCCGGTGCTTAGCTTACTCTCATGTAGTTCCT
B9: ssDNA 33 (ssDNA)
DNA: ATCCGCCTGATTAGCGATACTTCAAGCACTCCCGTCTTCCAGACAAGAGTGCAGGGCCTCTACTTGAGCAAAATCACCTGCAGGGG
B10: ssDNA b79 (ssDNA)
DNA: CTACCTACGATCTGACTAGCGAGGCATTAGGTCCGAATGGTAGTAATGCTGTCGTGCCTTGCTTAGCTTACTCTCATGTAGTTCCT
B11: ssDNA b53 (ssDNA)
DNA: CTACCTACGATCTGACTAGCGCAAGGGCATCTCGGAATCGGTTAATCTGACTTGCAATACGCTTAGCTTACTCTCATGTAGTTCCT
B12: ssDNA b80 (ssDNA)
DNA: CTACCTACGATCTGACTAGCCCGTCGCGTGACTATAACCACACGCAGACTAGAGTGCAGGGCTTAGCTTACTCTCATGTAGTTCCT
B13: ssDNA 1 (ssDNA)
DNA: ATCCGCCTGATTAGCGATACTTCTGCGAGAGACCTACTGGAACGTTTTGTGATATTCACAACTTGAGCAAAATCACCTGCAGGGG
B14: ssDNA b85 (ssDNA)
DNA: CTACCTACGATCTGACTAGCGAGGAGGTGCGTTGTCCGAAGGGGTCGTTAGTCACCTCGTGCTTAGCTTACTCTCATGTAGTTCCT
B15: ssDNA b60 (ssDNA)
DNA: CTACCTACGATCTGACTAGCCCACCGCAGAGTGTTACACCCCATAGGAGAAGTCCGGATGGCTTAGCTTACTCTCATGTAGTTCCT
B16: ssDNA b88 (ssDNA)
DNA: CTACCTACGATCTGACTAGCGCAAGGGGTCCTGCCGAATGGGGGAATACGCTAGCCGAAAGCTTACTCTCATGTAGTTCCT
B17: ssDNA b99 (ssDNA)
DNA: CTACCTACGATCTGACTAGCCACGATAATCCTCCGAAAGCGTTGTCCGAATGGGTCGTTAGCTTAGCTTACTCTCATGTAGTTCCT
B18: ssDNA b59 (ssDNA)
DNA: CTACCTACGATCTGACTAGCAACACGAGCATGTGGGGTCCCTTCCGAATGGGGGGTACAGGCTTAGCTTACTCTCATGTAGTTCCT
B19: ssDNA b98 (ssDNA)
DNA: CTACCTACGATCTGACTAGCGATCCACGAAGAAGCTTACTCTCATGTAGTTCCAGCTTACTCTCATGTAGTTCCT

Target: VEGF165 (recombinant human vascular endothelial growth factor, 165 aa form) (Homo sapiens, UniProt P15692-4 P15692-4:27-191)
Assay: filter
Conditions: tags: gift from N. Ferrara, Genentech; chain copies: 2 (dimer, stated)

Chain of VEGF165 (recombinant human vascular endothelial growth factor, 165 aa form) (P15692 other isoform, or with tags, fused parts or gaps): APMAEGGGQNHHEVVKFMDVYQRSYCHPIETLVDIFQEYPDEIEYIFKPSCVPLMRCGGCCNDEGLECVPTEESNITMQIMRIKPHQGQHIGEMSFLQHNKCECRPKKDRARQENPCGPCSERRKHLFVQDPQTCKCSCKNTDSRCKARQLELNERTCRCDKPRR

Binder | Kd [nM]
AGGGCCACGTCTATTTAGACTAGAGTGCAGTGGTTC (ssDNA) [56t] | 0.2
GGAGGTGCGTTGTCCGAAGGGGTCGTTAGTCACCTC (ssDNA) [85t] | 0.3
CGAGGTCCCCCACTGGATAGAGTTGTTGAAACAACGGTGCGCTTA (ssDNA) [65t] | 0.32
AACACTTCCCCACTGGATAGAGGCCTTTCGCAGAGCCGGTGCTTA (ssDNA) [66t] | 0.35
B1 | 0.5
B2 | 0.53
B3 | 0.75
B4 | 0.88
B5 | 0.9
B6 | 1
B7 | 1
B8 | 1.3
B9 | 2
B10 | 2
B11 | 2.5
GTAGTTCCTTTAGGACTAGAGGGCCGCCTAC (ssDNA) [15t] | 3
GTACCATCCACGGTTTACGTGGACAAGAGGGCCCTGGTAC (ssDNA) [10t] | 5
B12 | 8.1
B13 | 12
GCAAGGGGTCCTGCCGAATGGGGGAATACGCTAGCCGAAA (ssDNA) [88t] | 19
B14 | 0.15
B15 | 26
B16 | 34
B17 | 34
B18 | 91
B19 | > 100
